Experimental data: PMC7943553 (2021)

Assays:
335338 [1] = assay: BLI; representative sensorgram
340341 [2] = assay: BLI; representative sensorgram
267268 [3] = assay: BLI; representative sensorgram
326327 [4] = assay: BLI; representative sensorgram
277278 [5] = assay: BLI; representative sensorgram
262231 [6] = assay: BLI; representative sensorgram
346343 [7] = assay: BLI; representative sensorgram
252248 [8] = assay: BLI; representative sensorgram
256257 [9] = assay: BLI; representative sensorgram
250233 [10] = assay: BLI; representative sensorgram
239229 [11] = assay: BLI; representative sensorgram
254255 [12] = assay: BLI; representative sensorgram
260261 [13] = assay: BLI; representative sensorgram
279280 [14] = assay: BLI; representative sensorgram
335338 [15] = assay: BLI
281282 = assay: BLI
340341 [16] = assay: BLI
267268 [17] = assay: BLI
326327 [18] = assay: BLI
277278 [19] = assay: BLI
262231 [20] = assay: BLI
346343 [21] = assay: BLI
252248 [22] = assay: BLI
256257 [23] = assay: BLI
250233 [24] = assay: BLI
239229 [25] = assay: BLI
254255 [26] = assay: BLI
260261 [27] = assay: BLI
279280 [28] = assay: BLI

B1: P. vivax Reticulocyte Binding Protein 2b, residues 161–1454 (domain or fragment)
chain: PSPESTQITNTTDNIDYFDISDESNYYLISQLRPHFSNIYFFDEFKRYASYHTEIKRYEDIHKTKVNSLLNEASRAIGICNRAKNTVKGLINILENPQKFKTQRESYDVKLRQYEEKKEAFRGCLLNKNRKNLDQIKKINNEIRDLLEKLKCSQDCQTNVYFDMIKIYLVDFKKMPYENYDTFIKQYKNSYLSGVDMIRKIEKQIDNPVTINAIKFTQKEMGYIIDRFEYHLQKVKHSIDQVTALSDGVKPKQVTKNRLKEYYFNIGNYYSIFKFGKDSLNMLNKALIHKEKIVHNLLGELFGHLEERISKLIDSEYFITESNNIISQSEETLKLAEDVYDKNTKLIEDLTLYPHLEINEFKKDYDNNVEDLRESIIYIQSYVSSIKSAYRYNVLEKDSVESKQKNIPANSNAQKKVDELLSIIDSISYSNFSVAENFQKMKDYYKEIEKLKIKILQLIEAIKKYQQHVEELINKEKAVAILKEDINKIIEYIKGIIEKLKQLISANKDFDKIFQQVEQLINEALFNKDQFEHNKNDLHTKMKEIMHTFHERDLQQFLDNMSKFLKDQEASYQNADSKEKLDQLLTTVKAKQDELKEMKCDDIPDIIDNLKKESQNVLNLKDEVINKQFENMRTEMSSSLDQMTKEYNALKSSIEEYEAEKKGIENHKQNIIKRKNTFIVAEHENDEDVPEGKNTYNEFISNKDTILQKESAISNQMNTLEEKKRNRKTTLQTYGDAIQKLETYTEKKDEETKVLLDKFNTEVENFKLDEDEKSFNDAKSIVSNTINEVENENKNIDSIKKVNIAMKRSRSNQQSVEQLIRNKDNLLKEKMEKHFQKINTDEIIGQSAKANLLNNLESEKAIINEQLNDAHLNDLKLQIEKTLSYCEKSRENIKGNNGTHPEELNASEIEWEATKGKIETLNSNYQALNKNMDDIINKQHDEMIVLIDRDIKEKGKDIELKVEQRIQALEKMKAKLSSFDTNEDVKKYQSDINKEELIKLKEMSTAVLNKIDQNKNQLINVKTKSSGYVAESNGIKNKQTEPSQEKDKQIVYNTNRGDIEKVYKNIRDMYNELDDVEKEETTSNEVDNIEMQYDRLLINLLVQKINEENTKAKGLMEEIKSYIENIESVQAKMSDETREGATEFEFNQYQQSSLANDKKITEIVQHAINKKGEAERSKKTNEVKSIKNDVNTYMQQVIDEYNAMQKALGDIKNVNDLLISTSGRRIAEEISKSTNEAENFEKQAKGELGKINDIIEKMENQMVQAKEHENKIHINLEDKQIDEEVQKIRQIHEE
modifications: DyLight 488 (NHS ester) in the FRET assay; biotin (BirA site) in the competition ELISA between human mAbs
- Kd 335338 [1]: 0.0505 nM
- Kd 340341 [2]: 0.0794 nM
- Kd 267268 [3]: 0.3 nM
- Kd 326327 [4]: 0.5 nM
- Kd 277278 [5]: 0.0189 nM
- Kd 262231 [6]: 0.1 nM
- Kd 346343 [7]: < 0.01 nM
- Kd 252248 [8]: 0.3 nM
- Kd 256257 [9]: < 0.01 nM
- Kd 250233 [10]: 1 nM
- Kd 239229 [11]: 0.1 nM
- Kd 254255 [12]: 0.0157 nM
- Kd 260261 [13]: < 0.01 nM
- Kd 279280 [14]: 0.8 nM
- Kd 335338 [15]: 0.0782 nM
- koff 335338 [15]: 3.08e-05 s⁻¹
- Kd 281282: 0.0273 nM
- koff 281282: 6.03e-06 s⁻¹
- Kd 340341 [16]: 0.107 nM
- koff 340341 [16]: 3.85e-05 s⁻¹
- Kd 267268 [17]: 0.213 nM
- koff 267268 [17]: 5.71e-05 s⁻¹
- Kd 326327 [18]: 0.642 nM
- koff 326327 [18]: 0.000246 s⁻¹
- Kd 277278 [19]: 0.0796 nM
- koff 277278 [19]: 3.08e-05 s⁻¹
- Kd 262231 [20]: 0.14 nM
- koff 262231 [20]: 6.22e-05 s⁻¹
- Kd 346343 [21]: < 0.01 nM
- koff 346343 [21]: < 1e-06 s⁻¹
- Kd 252248 [22]: 0.586 nM
- koff 252248 [22]: 0.000193 s⁻¹
- Kd 256257 [23]: < 0.01 nM
- koff 256257 [23]: < 1e-06 s⁻¹
- Kd 250233 [24]: 0.988 nM
- koff 250233 [24]: 0.00035 s⁻¹
- Kd 239229 [25]: 0.112 nM
- koff 239229 [25]: 4.6e-05 s⁻¹
- Kd 254255 [26]: 0.0742 nM
- koff 254255 [26]: 2.52e-05 s⁻¹
- Kd 260261 [27]: 0.0205 nM
- koff 260261 [27]: 6.23e-06 s⁻¹
- Kd 279280 [28]: 0.727 nM
- koff 279280 [28]: 0.000194 s⁻¹
